Key:
SdpB(26-536) = target: T1, SdpB(26-536) (Caulobacter crescentus NA1000, UniProt A0A0H3C791 26-536, biotinylated using NHS-PEG4-Biotin (for BLI)); test: BLI
T1 chain: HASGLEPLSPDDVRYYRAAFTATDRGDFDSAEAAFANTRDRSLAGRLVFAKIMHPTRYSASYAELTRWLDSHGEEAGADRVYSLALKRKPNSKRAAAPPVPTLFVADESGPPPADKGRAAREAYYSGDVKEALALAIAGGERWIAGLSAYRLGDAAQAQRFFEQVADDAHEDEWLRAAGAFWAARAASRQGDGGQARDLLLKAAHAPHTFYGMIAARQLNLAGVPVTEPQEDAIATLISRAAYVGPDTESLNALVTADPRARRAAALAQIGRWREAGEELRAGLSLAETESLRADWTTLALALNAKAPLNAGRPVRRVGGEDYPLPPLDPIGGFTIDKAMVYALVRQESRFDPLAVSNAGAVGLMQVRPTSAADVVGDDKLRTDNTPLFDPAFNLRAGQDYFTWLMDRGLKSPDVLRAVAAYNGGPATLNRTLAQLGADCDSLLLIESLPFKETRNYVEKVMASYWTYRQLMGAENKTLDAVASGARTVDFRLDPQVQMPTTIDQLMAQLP

CrbA(371-451) = target: T2, CrbA(371-451) (Caulobacter crescentus NA1000, UniProt A0A0H3C8K5 371-451, biotinylated using NHS-PEG4-Biotin (for BLI)); test: BLI
T2 chain: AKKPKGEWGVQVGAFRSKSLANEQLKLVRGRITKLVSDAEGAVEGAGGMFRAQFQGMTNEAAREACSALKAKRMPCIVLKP

His6-SdpA(21-699) = target: T3, His6-SdpA(21-699) (Caulobacter crescentus NA1000, UniProt A0A0H3C7P1 21-699, biotinylated using NHS-PEG4-Biotin (for BLI)); test: BLI
T3 chain: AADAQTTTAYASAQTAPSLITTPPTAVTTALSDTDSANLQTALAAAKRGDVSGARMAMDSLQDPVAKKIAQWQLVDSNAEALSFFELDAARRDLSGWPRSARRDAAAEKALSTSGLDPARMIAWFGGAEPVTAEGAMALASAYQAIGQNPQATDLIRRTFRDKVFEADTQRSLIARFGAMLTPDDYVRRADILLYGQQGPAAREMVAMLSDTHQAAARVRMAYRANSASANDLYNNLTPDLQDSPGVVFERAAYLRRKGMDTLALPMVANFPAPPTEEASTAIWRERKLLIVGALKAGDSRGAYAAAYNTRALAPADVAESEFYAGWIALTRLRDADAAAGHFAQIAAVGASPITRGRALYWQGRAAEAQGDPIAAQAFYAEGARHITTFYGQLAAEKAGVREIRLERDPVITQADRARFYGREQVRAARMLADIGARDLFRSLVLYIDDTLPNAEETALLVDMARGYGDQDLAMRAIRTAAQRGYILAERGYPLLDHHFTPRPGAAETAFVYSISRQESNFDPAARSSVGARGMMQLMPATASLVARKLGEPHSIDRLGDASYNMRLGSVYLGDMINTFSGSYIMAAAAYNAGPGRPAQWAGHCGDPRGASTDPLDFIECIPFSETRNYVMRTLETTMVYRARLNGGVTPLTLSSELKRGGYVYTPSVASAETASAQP

FtsN(51-266) = target: T4, FtsN(51-266) (Caulobacter crescentus NA1000, UniProt B8GX61 51-266, biotinylated using NHS-PEG4-Biotin (for BLI)); test: BLI
T4 chain: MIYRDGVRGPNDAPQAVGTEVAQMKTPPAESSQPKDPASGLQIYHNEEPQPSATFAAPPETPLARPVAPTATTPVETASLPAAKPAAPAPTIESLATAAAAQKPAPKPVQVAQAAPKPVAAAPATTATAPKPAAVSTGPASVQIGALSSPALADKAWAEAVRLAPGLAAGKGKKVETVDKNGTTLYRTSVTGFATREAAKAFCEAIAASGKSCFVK

AmiC(35-395) = target: T5, AmiC(35-395) (Caulobacter crescentus NA1000, UniProt A0A0H3C9I3 35-395, biotinylated using NHS-PEG4-Biotin (for BLI)); test: BLI
T5 chain: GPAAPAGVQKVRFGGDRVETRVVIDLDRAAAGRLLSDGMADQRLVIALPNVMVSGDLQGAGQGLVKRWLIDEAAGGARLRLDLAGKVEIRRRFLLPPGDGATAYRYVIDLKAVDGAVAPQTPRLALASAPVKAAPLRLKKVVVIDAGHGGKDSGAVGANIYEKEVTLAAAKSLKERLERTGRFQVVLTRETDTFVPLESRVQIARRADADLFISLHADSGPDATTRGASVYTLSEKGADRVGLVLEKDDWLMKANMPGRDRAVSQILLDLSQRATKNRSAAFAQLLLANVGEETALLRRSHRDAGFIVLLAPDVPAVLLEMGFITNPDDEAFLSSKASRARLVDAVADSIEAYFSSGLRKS

[1] = target: SdpA, SdpB, AmiC, the SPOR domain of CrbA and the periplasmic region of FtsN; test: BLI; biotinylated target immobilised on streptavidin (SAX) sensors, DipM as analyte at several concentrations; equilibrium shifts fitted to a one-site model; 50 mM HEPES/NaOH pH 7.2, 50 mM NaCl, 5 mM MgCl2, 0.1 mM EDTA, 10% glycerol, 10 µM BSA, 0.01% Triton X-100

B1: MAS-DipM(26-609)-His6 (natural protein)
chain: MASGQSGQRFTPNFPITQPAAPPPGETIQAQPGEAESLPRPTPIPVQSAPPIAQAELPPPAPVSTPAPAPQPVLRATPPRTVVTTTVTGPVVEVAGKPQVRVVESGDALDAIARGMGSTRAELVKLNDLEPPYRLKLGQKIKGPATTAKAYVVQTGDTMFAIAKRFNVTAAALAEENDLKSGAAIKKGQKLLLPDGYKDKGPIKTTQVIPGTPATMVAEAEPAPATTRPATPAATPSRPVRQPVSEETSEPATTSTTTLSVTGSVVTVAGPRQVHTVKSGDTLTAIARKFDMSVSELAEANKLDTEKPLKLGAKIKGPATTQKAYSVQTGDTLGEIAKRFNVSVKALAAENNLRATASLKKGQKIALPDGFRDKGPIRTTTTTRPATPPANTYARVDSSAAAASTPSSPVPYTPSGAAPRPSAPVAAQPITPPPSSGRTIIETAAAPTEAEIIASGKGKFAWPLRGDIISSFGVKGTGQRNDGLNIRAPQGTPVLSSADGEIAYAGNQVPTFGNLVLVKHADGWVTAYAHLSSTNVKMRQQVKQGEQLGTVGATGGVNEPQLHFEMRYAPTVKDKAKPVDPALVLPR
- Kd (SdpB(26-536)): 3.5 µM
- Kd (CrbA(371-451)): 46.3 µM
- Kd (His6-SdpA(21-699)): 12.1 µM
- Kd (FtsN(51-266)): 20 µM
- Kd (AmiC(35-395)): 18.3 µM
- Kd [1]: 3 to 46 µM

Reference: PMC10336132 (2023)
